B1: TPR t1 (parent)
chain: GACCAAUCUGCCCUCAGAGCUCGAGAACAUCUUCGGAUGCAGAGGAGGCAGGCUUCGGUGGCGCGAUAGCGCCAACGUCCUCAACCUCCAAUGCAUCCCACCACAUGAUGAUGCCUGAAGAGCCUUGGUUUUUUG

Variants of: B1
Assay: polymerase ribozyme fitness, log enrichment relative to wild type (log ratio); higher = more active; in vitro selection for triplet polymerase activity
In short: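 Each subunit of a heterodimeric triplet polymerase ribozyme was mutagenized into a library by PCR, transcribed, and subjected to one round of in vitro selection, run in triplicate. Libraries were annealed with a biotinylated primer, the partner subunit and triplets, incubated frozen at −7 °C, and extended constructs were gel-excised, captured on streptavidin beads and recovered by RT-PCR. Input and output libraries were sequenced on Illumina, keeping genotypes with ≥10 input reads and ≥1 read per output. Fitness is log base 2 of genotype enrichment divided by wild-type enrichment, from inverse-variance-weighted replicate averages.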

In order of falling “polymerase ribozyme fitness (log ratio)” value:
1. A6G C97U U112A  1.48
2. U7A C56U G120U  0.935
3. A6U A37U U112A U130A  0.657
4. U7C G113A  0.595
5. U7C C72U  0.588
6. U7A G60U  0.564
7. U7G C12G G58A C72U  0.394
8. A6U C11G  0.392
9. A6G  0.335
10. A6G G48C C72A  0.333
11. A6U C11U C28U C34A C73A G110A  0.315
12. A6U  0.173
13. U7A A37U U78A  0.116
14. A6G C8A U55A  0.109
15. A6G C8A U9G  0.0967
16. A6U C102A C123G  -0.023
17. U7C C11A G45C G58A  -0.0271
18. A6U G61U  -0.0436
19. A6U C12U C72U A83C G127U  -0.0511
20. A6U C12U C80U  -0.107
21. A6G C11U  -0.107
22. A6G C8A  -0.14
23. U7G C13G G57A  -0.156
24. A6U G71U  -0.239
25. U7A G57U  -0.259
26. A6U C76G  -0.287
27. U7A C12A A90G  -0.303
28. A6C U131A  -0.317
29. U7C C72A A83G  -0.327
30. U7A A74G  -0.408
31. U7C A74G G110A A118U  -0.453
32. A6U G71A  -0.461
33. A6G C56A G69U C104U  -0.478
34. A6U U54A  -0.507
35. U7C G44A  -0.534
36. A6C G77A  -0.571
37. A6G A41U C70U C124A  -0.611
38. U7G C34U G69U C102U U106A  -0.632
39. A6C U9G  -0.665
40. U7G A18U  -0.713
41. U7G C13A C49G U96C  -0.772
42. U7G A27G G48C C86G  -0.81
43. A6U C49U C53U A84C  -0.896
44. U7A C53U C70U  -0.899
45. A6U G10C C12A U87A  -0.928
46. A6U C53U G69U G128C  -0.945
47. A6U C20U U21G G69C A121U  -0.95
48. A6C G52A U81C A121C C123A  -0.955
49. U7A G63A C89U  -1.1
50. A6U C72U C76G C98U  -1.11
51. U7A G60U C104A U125A  -1.13
52. U7A A43U  -1.13
53. U7C U59A A83G U96C  -1.25
54. A6U U9G G63C C104U C115U G117U  -1.31
55. A6U U9C U55C A75G A95C G110A  -1.37
56. U7C U9G A26G  -1.4
57. A6U G61A C79G  -1.4
58. A6U C73G  -1.46
59. A6U C11U U55G A83U U106A G128U U130C  -1.47
60. U7G C8U C70G  -1.52
61. U7C C11U C73U G93U  -1.53
62. A6G C70A C97U  -1.59
63. A6U C13G C56U G77C  -1.6
64. A6C G39U G63A  -1.63
65. U7C G47A G48A A90C U112C  -1.65
66. U7A C56G U92C  -1.74
67. A6U G47A C70U C94U  -1.74
68. U7G A91U  -1.77
69. U7C C20U C62A A83C A119G  -1.83
70. A6U C8G G44U C49A C72A G77U G120C U130G  -1.84
71. U7A A66U C98U  -1.89
72. U7A C34A C97U  -1.97
73. A6U G128A  -2.02
74. A6U C11A C62G G120A  -2.04
75. U7A C53U C73U C86U A90G G122A  -2.05
76. A6G C8G G10U C76A G117C C124A  -2.05
77. A6G C34A  -2.05
78. A6U U7G C8G C56A G63A  -2.06
79. A6U G113U  -2.09
80. A6U A18G C20U C73G U125A  -2.1
81. U7A U9C G45C C70U C89A C123A  -2.15
82. U7G A46U G93U  -2.2
83. A6G U54C A66G C80U  -2.2
84. A6G C49U G60C G135U  -2.21
85. U7C G61A U81G U116G C124A  -2.26
86. A6U G42C C73G  -2.29
87. A6U G39A A74C A91U  -2.33
88. U7C C8G C79A G110A  -2.4
89. U7C C13A C72G U92C  -2.47
90. U7A A66G U87C C94U G110U  -2.5
91. A6U C88U G128A  -2.51
92. U7C C8A A27C C97U  -2.64
93. U7G C8U A29U C40A G48A  -2.66
94. A6G G10A C11U G61A A100U G128A  -2.69
95. U7G C22G G117U U130C  -2.69
96. U7A C73G U116G  -2.7
97. A6G C11G C12U C40G G44U G93A  -2.75
98. U7A G10C G57U C88G  -2.78
99. U7C C70U C101G  -2.79
100. A6U A26G C79U  -2.88
101. A6U U92G  -2.92
102. A6U C70A A91G  -2.94
103. A6U U78A C115G U116G  -2.95
104. A6U C22U  -3.04
105. U7C C28G G61U  -3.14
106. A6C U38A A43U  -3.16
107. A6U G10U C12U C15G C72G C86A  -3.18
108. A6U G44A C73U C86G  -3.18
109. U7A C12U C62A G113C  -3.19
110. U7G A29U G42A C53U C62U  -3.19
111. U7G C12U C15A C22G C104U  -3.41
112. A6U C98U U112G  -3.5
113. A6C U78A C94G U106G  -3.64
114. A6U C49G C62A U78C C88A A119U  -3.67
115. A6U C80A A95U G120A U130G  -3.72
116. U7C G45U G60A C82G C85G G117A  -3.81
117. A6U G17U U112A G120A  -3.9
118. A6G A41G U87A G110A U125G  -3.92
119. A6C U9A C15G G45A C62U C104A C124G  -3.99
120. A6G G48U U54A C79U U87A  -4.01
121. A6U C102A G128A  -4.03
122. A6C G36A A66G C72G C76U U78A  -4.1
123. A6U G44A A50U C94G  -4.1
124. U7C G107A U109A  -4.11
125. A6C G35U A83U C98G A121U  -4.12
126. A6U C13A C22G A75U  -4.17
127. U7A A43C U129G  -4.22
128. A6U G17C  -4.25
129. A6U C8G C34U C53U C82U A84C  -4.3
130. U7A G10C A90U C101A  -4.34
131. U7C A16U C79U C85A  -4.35
132. A6U C40A G60U A105C  -4.4
133. A6C U54G C62U U92G  -4.44
134. U7C A43U G52A C53U C85A U87A  -4.57
135. U7C C12U C22U G63A  -4.58
136. U7A C64A  -4.63
137. A6C G57A C62G G120C  -4.68
138. A6U C15A C56A A105C  -4.85
139. A6U C15A G113A  -4.98
140. A6G A66U C73G A75U C80U G120U U129G  -4.99
141. A6U G51U C70U C80U G93U  -5.12
142. U7A C8A C11U C34U G48U C53A C72A  -5.13
143. U7A G48A A50G G77A C101U U109A  -5.13
144. A6U A16C C40U C70U C85G  -5.17
145. U7A U14G G17C C82G C102A C114G  -5.18
146. A6G C11G G17C G36C C97U  -5.22
147. A6G G48A G69A U129G  -5.25
148. U7C C34U C49A A50C  -5.35
149. A6U C11A C13G G47A G48A A74C A118G  -5.36
150. A6U A18G G93A  -5.43
151. A6G A18G U129A U133A G135U  -5.44
152. A6U G44A G63C G113U  -5.44
153. U7G C22U A68C G93U C115U A121G  -5.51
154. A6G C11U A29G G52A C76A C85A U125G  -5.55
155. A6U A24G A37U A43C A66U  -5.69
156. U7G C22G A24G G48U  -5.74
157. A6U G58C G63U C64A A119U  -6.07
158. A6U A18U G93C C102U  -6.29
159. U7C C49U A50C C99U A100U G117U  -6.3
160. A6U A18U C28U C70A C123G  -6.38
161. U7A C104G  -6.47
162. U7A G61A C73A C104G U109C  -6.61
163. A6G G61C C79A U112G C114U  -6.62
164. A6U A27U A46C G48A C53G C79G C82G G110C  -6.9
165. U7A C13G G63U G93A C102G C115U A121G  -7.01
166. A6U C28G C72U C102U A103C  -7.04
167. A6U G25A C56A C73A C79G C94U G113U C124A  -8.13

— the RNAGym collection of RNA variant scans (doi:10.1073/pnas.2313332121)
